Target: T1, Human CD117 antigen (recombinant CD117 ectodomain) (human, UniProt P10721 26-520)
T1 construct: also called c-kit; ectodomain of human CD117
Experiment: chemical cross-linking, High-Mass MALDI MS and nLC-Orbitrap MS of the CD117/Ab67 complex
Experimental: A sample of Ab67 was diluted in distilled water to a concentration of 2.7 mg/mL. 1 μL of the diluted Ab67 was then mixed with 1 μL of a matrix composed of a re-crystallized sinapinic acid matrix (10 mg/mL) in acetonitrile/water (1:1, v/v), TFA (0.1% (K200 MALDI Kit). The mixture was submitted to cross-linking using CovalX's K200 MALDI MS analysis kit. The protein solutions were mixed with 1 μl of K200 Stabilizer reagent (2 mg/ml) and incubated at room temperature. After the incubation time (180 minutes) the samples were prepared for MALDI analysis. The samples were analyzed by High-Mass MALDI MS immediately after crystallization at room temperature.
After digestion, formic acid 1% final was added to the solution. After proteolysis, 10 ul of the peptide solution generated by proteolysis were loaded onto a nano-liquid chromatography system (Ultimate 3000-RSLC). The cross-linked peptides were analyzed using Xquest version 2.0 and Stavrox 3.6. software. nLC-LTQ-Orbitrap MS/MS analysis using a nLC Ultimate 3000-RSLC system in line with a LTQ-Orbitrap mass spectrometer (Thermo Scientific) was performed.

T1 sequence (P10721 other isoform, or with tags, fused parts or gaps): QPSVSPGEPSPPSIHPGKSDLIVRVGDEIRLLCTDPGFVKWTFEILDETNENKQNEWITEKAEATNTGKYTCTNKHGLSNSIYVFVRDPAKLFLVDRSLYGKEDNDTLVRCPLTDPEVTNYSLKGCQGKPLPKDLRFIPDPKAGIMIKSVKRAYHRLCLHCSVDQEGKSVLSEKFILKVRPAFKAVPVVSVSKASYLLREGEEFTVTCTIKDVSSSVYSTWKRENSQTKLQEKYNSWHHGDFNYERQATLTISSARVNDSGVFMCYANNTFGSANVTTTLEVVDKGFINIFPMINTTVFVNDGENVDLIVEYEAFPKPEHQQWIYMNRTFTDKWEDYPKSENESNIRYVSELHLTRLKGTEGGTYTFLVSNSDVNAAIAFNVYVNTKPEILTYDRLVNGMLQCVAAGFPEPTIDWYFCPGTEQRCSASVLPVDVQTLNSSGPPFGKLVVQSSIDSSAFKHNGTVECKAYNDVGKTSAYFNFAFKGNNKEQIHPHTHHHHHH

B1: Antibody 67 (Ab67), human anti-CD117 antibody (antibody, V domains shown)
VH: EVQLVESGGGLVQPGGSLRLSCAASGFTFSDADMDWVRQAPGKGLEWVGRTRNKAGSYTTEYAASVKGRFTISRDDSKNSLYLQMNSLKTEDTAVYYCAREPKYWIDFDLWGRGTLVTVSS
VL: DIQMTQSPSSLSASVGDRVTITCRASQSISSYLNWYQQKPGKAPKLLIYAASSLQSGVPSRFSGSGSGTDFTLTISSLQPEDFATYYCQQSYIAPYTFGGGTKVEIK
notes: also called Antibody HC-67/LC-67
B1: binds.

— US20220177578A1 (MAGENTA THERAPEUTICS, published 2022)
